# ± gives the standard deviation of the averaged measurements.
# Assays:
# [1] = test system: MCF7; experiment: percentage of EdU-negative (G0-arrested) nuclei per well, 72 h; higher = more G0 arrest; settings: reference: sequence is the full UniProt precursor, the tested protein was the secreted form or ectodomain
# [2] = test system: hTERT-HMEC; experiment: as above; settings: reference: sequence is the full UniProt precursor, the tested protein was the secreted form or ectodomain
# [3] = protein concentration 0.0225 µM
# [4] = protein concentration 0.0166175 µM
# [5] = protein concentration 0.166175 µM
# [6] = protein concentration 0.02823 µM
# [7] = protein concentration 0.2823 µM
# [8] = protein concentration 0.01425 µM
# [9] = protein concentration 0.1425 µM
# [10] = protein concentration 0.0202725 µM
# [11] = protein concentration 0.202725 µM
# [12] = protein concentration 0.0357143 µM
# [13] = protein concentration 0.357143 µM
# [14] = protein concentration 0.03125 µM
# [15] = protein concentration 0.3125 µM
# [16] = protein concentration 0.01034 µM
# [17] = protein concentration 0.1034 µM
# [18] = protein concentration 0.0294275 µM
# [19] = protein concentration 0.294275 µM
# 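Also: secreted proteins added to cultured cells, EdU pulse at the end, nuclei found by Hoechst imaging, EdU status from nuclear versus surrounding ring intensity ratio, PBS as neutral control.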
sequence,measurement,setting,value
MEQWDHFHNQQEDTDSCSESVKFDARSMTALLPPNPKNSPSLQEKLKSFKAALIALYLLVFAVLIPLIGIVAAQLLKWETKNCSVSSTNANDITQSLTGKGNDSEEEMRFQEVFMEHMSNMEKRIQHILDMEANLMDTEHFQNFSMTTDQRFNDILLQLSTLFSSVQGHGNAIDEISKSLISLNTTLLDLQLNIENLNGKIQENTFKQQEEISKLEERVYNVSAEIMAMKEEQVHLEQEIKGEVKVLNNITNDLRLKDWEHSQTLRNITLIQGPPGPPGEKGDRGPTGESGPRGFPGPIGPPGLKGDRGAIGFPGSRGLPGYAGRPGNSGPKGQKGEKGSGNTLTPFTKVRLVGGSGPHEGRVEILHSGQWGTICDDRWEVRVGQVVCRSLGYPGVQAVHKAAHFGQGTGPIWLNEVFCFGRESSIEECKIRQWGTRACSHSEDAGVTCTL,percentage of EdU-negative,[1]; [3],27.3 ± 1.6%
same,percentage of EdU-negative,[1]; protein concentration 0.225 µM,25.4 ± 1.7%
same,percentage of EdU-negative,[2]; [3],5.16 ± 0.032%
same,percentage of EdU-negative,[2]; protein concentration 0.225 µM,5.23 ± 1.7%
MERAAPSRRVPLPLLLLGGLALLAAGVDADVLLEACCADGHRMATHQKDCSLPYATESKECRMVQEQCCHSQLEELHCATGISLANEQDRCATPHGDNASLEATFVKRCCHCCLLGRAAQAQGQSCEYSLMVGYQCGQVFQACCVKSQETGDLDVGGLQETDKIIEVEEEQEDPYLNDRCRGGGPCKQQCRDTGDEVVCSCFVGYQLLSDGVSCEDVNECITGSHSCRLGESCINTVGSFRCQRDSSCGTGYELTEDNSCKDIDECESGIHNCLPDFICQNTLGSFRCRPKLQCKSGFIQDALGNCIDINECLSISAPCPIGHTCINTEGSYTCQKNVPNCGRGYHLNEEGTRCVDVDECAPPAEPCGKGHRCVNSPGSFRCECKTGYYFDGISRMCVDVNECQRYPGRLCGHKCENTLGSYLCSCSVGFRLSVDGRSCEDINECSSSPCSQECANVYGSYQCYCRRGYQLSDVDGVTCEDIDECALPTGGHICSYRCINIPGSFQCSCPSSGYRLAPNGRNCQDIDECVTGIHNCSINETCFNIQGGFRCLAFECPENYRRSAATLQQEKTDTVRCIKSCRPNDVTCVFDPVHTISHTVISLPTFREFTRPEEIIFLRAITPPHPASQANIIFDITEGNLRDSFDIIKRYMDGMTVGVVRQVRPIVGPFHAVLKLEMNYVVGGVVSHRNVVNVHIFVSEYWF,percentage of EdU-negative,[1]; [4],27.1 ± 0.61%
same,percentage of EdU-negative,[1]; [5],26.7 ± 1.6%
same,percentage of EdU-negative,[2]; [4],3.95 ± 0.058%
same,percentage of EdU-negative,[2]; [5],5.63 ± 0.19%
MERASCLLLLLLPLVHVSATTPEPCELDDEDFRCVCNFSEPQPDWSEAFQCVSAVEVEIHAGGLNLEPFLKRVDADADPRQYADTVKALRVRRLTVGAAQVPAQLLVGALRVLAYSRLKELTLEDLKITGTMPPLPLEATGLALSSLRLRNVSWATGRSWLAELQQWLKPGLKVLSIAQAHSPAFSCEQVRAFPALTSLDLSDNPGLGERGLMAALCPHKFPAIQNLALRNTGMETPTGVCAALAAAGVQPHSLDLSHNSLRATVNPSAPRCMWSSALNSLNLSFAGLEQVPKGLPAKLRVLDLSCNRLNRAPQPDELPEVDNLTLDGNPFLVPGTALPHEGSMNSGVVPACARSTLSVGVSGTLVLLQGARGFA,percentage of EdU-negative,[1]; [6],26.8 ± 1.2%
same,percentage of EdU-negative,[1]; [7],27.2 ± 0.7%
same,percentage of EdU-negative,[2]; [6],4.9 ± 0.54%
same,percentage of EdU-negative,[2]; [7],8.12 ± 1.2%
MERASLIQKAKLAEQAERYEDMAAFMKGAVEKGEELSCEERNLLSVAYKNVVGGQRAAWRVLSSIEQKSNEEGSEEKGPEVREYREKVETELQGVCDTVLGLLDSHLIKEAGDAESRVFYLKMKGDYYRYLAEVATGDDKKRIIDSARSAYQEAMDISKKEMPPTNPIRLGLALNFSVFHYEIANSPEEAISLAKTTFDEAMADLHTLSEDSYKDSTLIMQLLRDNLTLWTADNAGEEGGEAPQEPQS,percentage of EdU-negative,[1]; [3],25.3 ± 4.8%
same,percentage of EdU-negative,[1]; protein concentration 0.225 µM,20.9 ± 1.9%
same,percentage of EdU-negative,[2]; [3],4.93 ± 0.53%
same,percentage of EdU-negative,[2]; protein concentration 0.225 µM,5.22 ± 0.073%
MERCPSLGVTLYALVVVLGLRATPAGGQHYLHIRPAPSDNLPLVDLIEHPDPIFDPKEKDLNETLLRSLLGGHYDPGFMATSPPEDRPGGGGGAAGGAEDLAELDQLLRQRPSGAMPSEIKGLEFSEGLAQGKKQRLSKKLRRKLQMWLWSQTFCPVLYAWNDLGSRFWPRYVKVGSCFSKRSCSVPEGMVCKPSKSVHLTVLRWRCQRRGGQRCGWIPIQYPIISECKCSC,percentage of EdU-negative,[1]; [8],23.9 ± 0.44%
same,percentage of EdU-negative,[1]; [9],25.4 ± 2.8%
same,percentage of EdU-negative,[2]; [8],4.77 ± 0.41%
same,percentage of EdU-negative,[2]; [9],5.81 ± 0.99%
MERDGCAGGGSRGGEGGRAPREGPAGNGRDRGRSHAAEAPGDPQAAASLLAPMDVGEEPLEKAARARTAKDPNTYKVLSLVLSVCVLTTILGCIFGLKPSCAKEVKSCKGRCFERTFGNCRCDAACVELGNCCLDYQETCIEPEHIWTCNKFRCGEKRLTRSLCACSDDCKDKGDCCINYSSVCQGEKSWVEEPCESINEPQCPAGFETPPTLLFSLDGFRAEYLHTWGGLLPVISKLKKCGTYTKNMRPVYPTKTFPNHYSIVTGLYPESHGIIDNKMYDPKMNASFSLKSKEKFNPEWYKGEPIWVTAKYQGLKSGTFFWPGSDVEINGIFPDIYKMYNGSVPFEERILAVLQWLQLPKDERPHFYTLYLEEPDSSGHSYGPVSSEVIKALQRVDGMVGMLMDGLKELNLHRCLNLILISDHGMEQGSCKKYIYLNKYLGDVKNIKVIYGPAARLRPSDVPDKYYSFNYEGIARNLSCREPNQHFKPYLKHFLPKRLHFAKSDRIEPLTFYLDPQWQLALNPSERKYCGSGFHGSDNVFSNMQALFVGYGPGFKHGIEADTFENIEVYNLMCDLLNLTPAPNNGTHGSLNHLLKNPVYTPKHPKEVHPLVQCPFTRNPRDNLGCSCNPSILPIEDFQTQFNLTVAEEKIIKHETLPYGRPRVLQKENTICLLSQHQFMSGYSQDILMPLWTSYTVDRNDSFSTEDFSNCLYQDFRIPLSPVHKCSFYKNNTKVSYGFLSPPQLNKNSSGIYSEALLTTNIVPMYQSFQVIWRYFHDTLLRKYAEERNGVNVVSGPVFDFDYDGRCDSLENLRQKRRVIRNQEILIPTHFFIVLTSCKDTSQTPLHCENLDTLAFILPHRTDNSESCVHGKHDSSWVEELLMLHRARITDVEHITGLSFYQQRKEPVSDILKLKTHLPTFSQED,percentage of EdU-negative,[1]; [10],25.1 ± 0.47%
same,percentage of EdU-negative,[1]; [11],24.77 ± 0.21%
same,percentage of EdU-negative,[2]; [10],4.82 ± 0.41%
same,percentage of EdU-negative,[2]; [11],5.77 ± 0.8%
MERLVIRMPFSHLSTYSLVWVMAAVVLCTAQVQVVTQDEREQLYTPASLKCSLQNAQEALIVTWQKKKAVSPENMVTFSENHGVVIQPAYKDKINITQLGLQNSTITFWNITLEDEGCYMCLFNTFGFGKISGTACLTVYVQPIVSLHYKFSEDHLNITCSATARPAPMVFWKVPRSGIENSTVTLSHPNGTTSVTSILHIKDPKNQVGKEVICQVLHLGTVTDFKQTVNKGYWFSVPLLLSIVSLVILLVLISILLYWKRHRNQDRGELSQGVQKMT,percentage of EdU-negative,[1]; [12],23.6 ± 3.9%
same,percentage of EdU-negative,[1]; [13],23.5 ± 1%
same,percentage of EdU-negative,[2]; [12],5.34 ± 1.2%
same,percentage of EdU-negative,[2]; [13],5.8 ± 1%
MERMLPLLALGLLAAGFCPAVLCHPNSPLDEENLTQENQDRGTHVDLGLASANVDFAFSLYKQLVLKAPDKNVIFSPLSISTALAFLSLGAHNTTLTEILKGLKFNLTETSEAEIHQSFQHLLRTLNQSSDELQLSMGNAMFVKEQLSLLDRFTEDAKRLYGSEAFATDFQDSAAAKKLINDYVKNGTRGKITDLIKDLDSQTMMVLVNYIFFKAKWEMPFDPQDTHQSRFYLSKKKWVMVPMMSLHHLTIPYFRDEELSCTVVELKYTGNASALFILPDQDKMEEVEAMLLPETLKRWRDSLEFREIGELYLPKFSISRDYNLNDILLQLGIEEAFTSKADLSGITGARNLAVSQVVHKAVLDVFEEGTEASAATAVKITLLSALVETRTIVRFNRPFLMIIVPTDTQNIFFMSKVTNPKQA,percentage of EdU-negative,[1]; [14],24.5 ± 0.068%
same,percentage of EdU-negative,[1]; [15],28 ± 3.5%
same,percentage of EdU-negative,[2]; [14],4.76 ± 0.8%
same,percentage of EdU-negative,[2]; [15],9.51 ± 0.15%
MERPLCSHLCSCLAMLALLSPLSLAQYDSWPHYPEYFQQPAPEYHQPQAPANVAKIQLRLAGQKRKHSEGRVEVYYDGQWGTVCDDDFSIHAAHVVCRELGYVEAKSWTASSSYGKGEGPIWLDNLHCTGNEATLAACTSNGWGVTDCKHTEDVGVVCSDKRIPGFKFDNSLINQIENLNIQVEDIRIRAILSTYRKRTPVMEGYVEVKEGKTWKQICDKHWTAKNSRVVCGMFGFPGERTYNTKVYKMFASRRKQRYWPFSMDCTGTEAHISSCKLGPQVSLDPMKNVTCENGLPAVVSCVPGQVFSPDGPSRFRKAYKPEQPLVRLRGGAYIGEGRVEVLKNGEWGTVCDDKWDLVSASVVCRELGFGSAKEAVTGSRLGQGIGPIHLNEIQCTGNEKSIIDCKFNAESQGCNHEEDAGVRCNTPAMGLQKKLRLNGGRNPYEGRVEVLVERNGSLVWGMVCGQNWGIVEAMVVCRQLGLGFASNAFQETWYWHGDVNSNKVVMSGVKCSGTELSLAHCRHDGEDVACPQGGVQYGAGVACSETAPDLVLNAEMVQQTTYLEDRPMFMLQCAMEENCLSASAAQTDPTTGYRRLLRFSSQIHNNGQSDFRPKNGRHAWIWHDCHRHYHSMEVFTHYDLLNLNGTKVAEGHKASFCLEDTECEGDIQKNYECANFGDQGITMGCWDMYRHDIDCQWVDITDVPPGDYLFQVVINPNFEVAESDYSNNIMKCRSRYDGHRIWMYNCHIGGSFSEETEKKFEHFSGLLNNQLSPQ [Q9Y4K0],percentage of EdU-negative,[1]; [16],25.4 ± 0.28%
same,percentage of EdU-negative,[1]; [17],27.7 ± 0.84%
same,percentage of EdU-negative,[2]; [16],4.4 ± 0.43%
same,percentage of EdU-negative,[2]; [17],9.13 ± 1.5%
MERPSLRALLLGAAGLLLLLLPLSSSSSSDTCGPCEPASCPPLPPLGCLLGETRDACGCCPMCARGEGEPCGGGGAGRGYCAPGMECVKSRKRRKGKAGAAAGGPGVSGVCVCKSRYPVCGSDGTTYPSGCQLRAASQRAESRGEKAITQVSKGTCEQGPSIVTPPKDIWNVTGAQVYLSCEVIGIPTPVLIWNKVKRGHYGVQRTELLPGDRDNLAIQTRGGPEKHEVTGWVLVSPLSKEDAGEYECHASNSQGQASASAKITVVDALHEIPVKKGEGAEL,percentage of EdU-negative,[1]; [18],25.4 ± 0.77%
same,percentage of EdU-negative,[1]; [19],26.5 ± 1.5%
same,percentage of EdU-negative,[2]; [18],4.88 ± 0.84%
same,percentage of EdU-negative,[2]; [19],5.65 ± 0.3%

# — the supplement of paper PMC11316812
